According to patent publication US20130288908A1 (MITSUBISHI TANABE PHARMA, published 2013):

Tests used:
Her-2 = biological target: T1, Her-2 (human, UniProt P04626 23-652); experiment: ELISA, Her-2 immobilized at 1 µg/ml, detection with HRP-labeled anti-FLAG antibody, OD 405 nm
T1 construct: Bought protein (R&D systems); also called human EGFR-2 (Her-2); Her2 antigen

biotinylated Her-2 = biological target: T2, biotinylated Her-2 (human, UniProt P04626 23-652, biotinylated with Sulfo-NHS-SS-Biotin (sites not given)); experiment: sandwich ELISA, biotinylated antigen captured on the stAv coating (BSA coating as control), Fab detected with HRP-labeled anti-FLAG antibody, OD 405 nm
T2 construct: also called biotinylated antigen

Row | Binder | binding result (Her-2) | binding result (biotinylated Her-2)
1 | Fab-TT (Fab, also called Fag-TT; TNFαR-reactive Fab) chain 1: MDIQMTQSPSSLSASVGDRVTITCRASQDIKNYLSWYQQQPGNAPKPLIYAGSNRQSGVPSRFSGSGSETDFTLTISSLQPEDFATYYCQQTYIYPITFGQGTKVEIKRTVAAPSVFIFPPSDEQLKSGTASVVCLLNNFYPREAKVQWKVDNALQSGNSQESVTEQDSKDSTYSLSSTLTLSKADYEKHKVYACEVTHQGLSSPVTKSFNRGEGGEQKLISEEDL chain 2: MEVQLVESGGGLVQPGGSLRLSCAASGFTIERYAMGWVRQAPGKGLEWVGTIYPWGDYTDYADSVKGRFTISRDNSKNTLYLQMNSLRDEDTAVYYCARSNYPNGMYYVMEYWGQGTLVTVSSASTKGPSVFPLAPSSKSTSGGTAALGCLVKDYFPEPVTVSWNSGALTSGVHTFPAVLQSSGLYSLSSVVTVPSSSLGTQTYICNVNHKPSNTKVDKKVEPGSGGDYKDDDDKSSDYKDDDDKHHHHHH | no binding | no binding
2 | Fab-HT (Fab, also called hybrid Fab (Her-2-reactive L chain and TNFαR-reactive H chain)) chain 1: not shown chain 2: MEVQLVESGGGLVQPGGSLRLSCAASGFTIERYAMGWVRQAPGKGLEWVGTIYPWGDYTDYADSVKGRFTISRDNSKNTLYLQMNSLRDEDTAVYYCARSNYPNGMYYVMEYWGQGTLVTVSSASTKGPSVFPLAPSSKSTSGGTAALGCLVKDYFPEPVTVSWNSGALTSGVHTFPAVLQSSGLYSLSSVVTVPSSSLGTQTYICNVNHKPSNTKVDKKVEPGSGGDYKDDDDKSSDYKDDDDKHHHHHH | no binding | 
